Test results taken from US20190031713A1 (Regeneron, published 2019).

Target: T1, Protein A (on chromatography support) (UniProt P38507 37-327)
T1 construct: Commercial recombinant Protein A resins; also called rProtein A FF; NAb Protein A Plus
Test: rProtein A FF column, pH gradient, 20 mM sodium citrate, 1 M NaCl
Method: The solvent system consisted of solvent A (PBS, 1×), solvent B (20 mM sodium citrate and 1 M NaCl, pH 5.5) and solvent C (20 mM sodium citrate and 1M NaCl, pH 2.5). The elution started with an isocratic elution with 100% A in the first 20 min followed by a quick switch to 100% B at 20 min. […] A linear gradient from 33.5% C to 100% C was followed for 30 min. The flow rate was kept 250 microliters/min and the chromatograms were detected at 280 nm by a UV detector.

B1: differentially modified heterodimeric human IgG2 Fc/ΔAdpFc (other)
chain 1: ERKCCVECPPCPAPPVAGPSVFLFPPKPKDTLMISRTPEVTCVVVDVSHEDPEVQFNWYVDGVEVHNAKTKPREEQFNSTFRVVSVLTVVHQDWLNGKEYKCKVSNKGLPAPIEKTISKTKGQPREPQVYTLPPSREEMTKNQVSLTCLVKGFYPSDIAVEWESNGQPENNYKTTPPMLDSDGSFFLYSKLTVDKSRWQQGNVFSCSVMHEALHNHYTQKSLSLSPGK
chain 2: ERKCCVECPPCPAPPVAGPSVFLFPPKPKDTLMISRTPEVTCVVVDVSHEDPEVQFNWYVDGVEVHNAKTKPREEQFNSTFRVVSVLTVVHQDWLNGKEYKCKVSNKGLPAPIEKTISKTKGQPREPQVYTLPPSREEMTKNQVSLTCLVKGFYPSDIAVEWESNGQPENNYKTTPPMLDSDGSFFLYSKLTVDKSRWQQGNVFSCSVMHEALHNRFTQKSLSLSPGK
elution pH from Protein A column: 4.5 pH

B2: unmodified human homodimeric IgG2 Fc/Fc (other, UniProt P01859-1 99-326, looked up)
chain: ERKCCVECPPCPAPPVAGPSVFLFPPKPKDTLMISRTPEVTCVVVDVSHEDPEVQFNWYVDGVEVHNAKTKPREEQFNSTFRVVSVLTVVHQDWLNGKEYKCKVSNKGLPAPIEKTISKTKGQPREPQVYTLPPSREEMTKNQVSLTCLVKGFYPSDISVEWESNGQPENNYKTTPPMLDSDGSFFLYSKLTVDKSRWQQGNVFSCSVMHEALHNHYTQKSLSLSPGK
notes: domain: Fc; also called hIgG2 Fc/Fc; hIgG2
elution pH from Protein A column: 3.5 pH
